In paper PMC8938473 one finds binding data, which are given here for 1 sequence.

This data set concerns the target T1, His6-CRP (cAMP receptor protein) (Shewanella putrefaciens CN32) (UniProt A0ABX8XCW1).
T1 sequence: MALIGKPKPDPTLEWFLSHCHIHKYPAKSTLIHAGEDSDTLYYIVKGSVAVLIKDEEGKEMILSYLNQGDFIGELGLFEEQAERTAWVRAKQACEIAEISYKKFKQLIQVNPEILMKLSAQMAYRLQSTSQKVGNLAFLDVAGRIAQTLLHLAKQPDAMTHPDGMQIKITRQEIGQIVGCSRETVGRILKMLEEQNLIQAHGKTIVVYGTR
The data set is described as follows: EMSA. As to conditions: EMSA per DIG Gel Shift Kit 2nd Generation (Roche) protocol, 1 uM cAMP when necessary; buffer, salt, pH and temperature not given. For orientation: A gel shift assay detects complexes by their altered migration in electrophoresis.

For “ACCGATCCCATAATTAGCTCCCAACACCCAAGTGTTAATCCAAACAAAGGCCCACAAATCCAACAAATGTATGGAAGTGTGATACAAGTGGTGGAATTTTAGCTAATGAGCGAATGGAAGTCAATTTTTTGACGCGCCTCTATCGCTTGGTATTAAGGCTTTTTCTTGCGCATTACCTGTAAAATTGACGCTGGTTTTGTATAAAACTAGATGTTGTATGTTTATTTGTA (double strand) [bpfA-pro]”, the binding result was “binds”.
